Source: publication PMC12154184, “An Anti-BCMA Affibody Affinity Protein for Therapeutic and Diagnostic Use in Multiple Myeloma” (International Journal of Molecular Sciences, 2025)

Biological target: T1, human APRIL (A Proliferation Inducing Ligand) (human, UniProt O75888 105-250)
T1 construct: No catalogue number is printed; also called hAPRIL; source: bought: R&D Systems
T1 sequence (looked up): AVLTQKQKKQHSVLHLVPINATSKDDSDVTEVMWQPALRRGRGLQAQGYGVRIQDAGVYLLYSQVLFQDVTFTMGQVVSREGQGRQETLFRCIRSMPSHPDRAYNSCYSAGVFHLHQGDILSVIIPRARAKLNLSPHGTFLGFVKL
Assay: SPR; blocking assay, Biacore T200; human BCMA-rFc immobilised; 1 µM 1-E6 (affibody-His6) or running buffer injected first, then 100 nM APRIL or 25 nM belantamab; PBS-T
Conditions: both partners purified

- binding result: binds
B1: recombinant human BCMA extracellular domain fused to the Fc portion of rabbit IgG (BCMA-rFc) (Fc fusion, UniProt Q02223 5-50, looked up)
chain: AGQCSQNEYFDSLLHACIPCQLRCSSNTPPLTCQRYCNASVTNSVK
notes: human B Cell Maturation Antigen (BCMA, TNFRSF17, CD269), residues 5-50 containing the ECD as told in the results; the methods give residues 1-54 of UniProt Q02223 for the biotinylated selection antigen (cat. no. 10620-H03H-B); no range is printed for 10620-H15H itself; The discussion speaks of 45 residues; also called human BCMA-rFc; immobilised BCMA; source: bought: Sino Biological (cat. no. …)
